Bounds are passed on as bounds.

The nature of this data set: soluble fraction after stress (log2 fold change); higher = more stays soluble; pooled small domains, quantitative proteomics. The note with it: stress: pH 4. An outline of the steps: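 Pooled custom libraries of small protein domains were stressed at pH 4 and then measured by high-throughput quantitative proteomics. The fold change in the amount of each domain that stays soluble after the acid stress serves as a measure of aggregation propensity. Fold changes are given on a log2 scale, and higher values mean more of the domain stayed soluble.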
Turning to “HMSGSLLQTRQRLQALTDLGHYKGDLAAAWGPEAIEALKRAQAALGITVDGKWGPETEDAIQVALQAQT”, the “soluble fraction (log2)” value is -0.133.

As for “HMSGSPREQAESEYRKAIAAVNQGRVSEATESLRAALRLDAFQVAARQLLVKLLLEAKNQDEAIQVLR”, the “soluble fraction (log2)” value was -0.489. The same measure for “HMSGTMYATAEVNVRSTYSSDGTIYGTLSKGTAVEITGTTDNGWVRVKYNGTTAYVYADYLSWKAP”: 0.144; for “HMSGYAIVNNQPGRTLNLRNSPSQSNNIIGQIPSGTRLQLISRGETWSEVIFQTTRGFVMSSFLRFET”: -0.17; for “HMSHGNAALTPRQRLRLARLVVDDQWSVSAAAEFFRVSYPTAAKWARRYVELGPAGMADRSS”: -0.0854. Consider “HMSHRVGDVVELTAVRMNDQGVFLDAGTGNTSDDILLHKHQMTSPVSVGDKVKVQLYLDAKNRITASMKL”, for which the “soluble fraction (log2)” value was -0.199. Turning to “HMSIEIIEITSNSSPKNLSEIIDIDATQIVADLMGLGIMKAIDTPLENSEIEQLLEKYNLIAEFVE”, the “soluble fraction (log2)” value was -2.51. The same measure for “HMSILEIFGRNVQKYRKEQRLSQEKLAEYAGLHRTYIGMIERAEKNITLVNIEKIAKALNINLTKLLE”: 0.0741; for “HMSILTELDIGDKVEVVAGPFKGIQANITRIEPVRKEVTVILLDAPYQLPVTVDADYLKIIQKS”: -0.0376. With “HMSINISFEPADHLGKDVIFIRFPYDNEWIQRVRKLKGAKWSQSQRAWHVPDTEHYRTLFQLPQKI”, the “soluble fraction (log2)” value was -0.704. Next, “HMSIQDLMNSKDLSGFKVEMLSNEDIVKYKSMLQSSGFSESQAEQLALQRGLPTSELIKLRTRISDVAVT”: 0.17. Regarding “HMSIQELMNSKDLSSFKVEMLSDEDIAKYKGLLQNSGLTEAQAEQMALQRGLPSSELLKLKARLSGI”, the “soluble fraction (log2)” value was 0.0846. On to “HMSIQREIILEVIKNNRTHPTAEEIYILVTKKEPKISRSTVYRNINILVEKGIIEKITIATGPDRYDY”, for which the “soluble fraction (log2)” value is -0.126.

For the sequence “HMSISDEDFAKLLDFVKEKWDAGELDNAEDIKAAISEGEKEFGVSLDESTRTTLASALQQLN”, the “soluble fraction (log2)” value is -0.496. Next, “HMSIYDAPIEDLKFSTRIFNSLKRADIHTVADLIAHSRDDLMKVRNLGATSLDELIEKLGTHGLQLADP”: -0.356. The same measure for “HMSIYYQIYESLKKDLSNNLYKPGEKLPSENVLSKRFGVNRHTIRRSLQLLKNEGILFSKRGSGIIVHD”: 0.359; for “HMSKDKEKRTREHVLGILKKYDKVMTDKAFTVFKKMIKDESILEMELIKLINFIGERKEIRSKDVLAVVTE”: -0.329; for “HMSKEIQNILASLPSVDVLLKQIDPIYPHGKAKEATQQVVARLRESVVDGTRKTVIDQKEVIAMIHKQLEE”: -0.149.

In the case of “HMSKETTYEVLSLKGDEWQTDTIYSDRDEAIEAARNLHGDPHIDGAKVISEVYDDKTGGSKETTIFNT”, the “soluble fraction (log2)” value was -0.21. For “HMSKHAIQNELEKIEGIGKQTADSLLKEFKSVKKLRTLPLSEIEKVIGKSKATIVFEALHKDK”, the “soluble fraction (log2)” value is 0.0949. Next, “HMSKHATLLEALADLSVKLKPHSQLPSERALSEEYGVSRMTLRRAIDVLQARGYIYSVPSKGLFVSEP”: -0.0584.

With “HMSKHATLLEALAELTVKLKPHTQLPSERQLSEDFGVSRMTLRRAIDVMQSRGYIYTVPSKGLYVSEP”, the “soluble fraction (log2)” value is -0.156. The same measure for “HMSKIRTFRVKTVAVDQAYQVLKDYSPIKISTESNAVIIDLDESKTPAEIAGYLEKNGIKVDNIEVIAESE”: -0.148; for “HMSKISKENEQQVIQIVQTLLLNVQDKSLITTQILNEKINLAVSLDTKYKENLDRDYIIEELIRRYSVW”: -2.54. Next, “HMSKKIVLPAAITVKKFSETLDMPLGTVISELMKNGILATINERIDFETASIIAQDLGYEVSEEV”: 0.0626. The same measure for “HMSKKQEQALQSREKLLDAATALFAEHGYRDTSVQAIGEKAGVSRGSIFWHFGSKEGLLWAVVERAFTA”: 0.346; for “HMSKKTQKDEVVDLFLKTGNEPLHYKEISKKTGIIVHNVRRITGQNVVGKTDNPVFKRVSPGVYKLID”: -0.0395; for “HMSKLSVSSLSSPEVQNQLKAAGIDVNSRQYQVVMKDMMGALDGRAGYTTVSAIKNRMRQYNADGDY”: 0.19. Take “HMSKMVEMSQEKSREKVARVKIEIQKMLDRKERVTVSGLERATGFSNSFFYRNEEVNQAVKEAQLKQ”: the “soluble fraction (log2)” value was 0.0693. For the sequence “HMSKNIRQQFLDVLPKTFDRNQYLETAKKLSINAKTAEGYIKKFVEANLLDHPKHNHYINLKKVEEVETK”, the “soluble fraction (log2)” value is -0.0789. As to “HMSKNYYEILGVTPDVELSQLKAVYRRLVRKYHPDINPDGELIFKDITEAYEVLSDEKQRKQYDMINGF”, the “soluble fraction (log2)” value was -0.362.

As to “HMSKPILSFVDPEKDPSHYVKRYITEETYKDWFSEHFPDYTLYEGIGITQEEYRNIVNELTKP”, the “soluble fraction (log2)” value is -1.7. In the case of “HMSKPIYSELLREIRSGDVKELTLIPQRREVLVEYSDGRKATVSILANDQQVLRTAESAGVPLTVK”, the “soluble fraction (log2)” value was found to be 0.116. As for “HMSKPVFQTHSVRSADSATVFDVLQTLLAGTPDARIAIDPKTNAIVAWARPETQEVIAKSIMEMEG”, the “soluble fraction (log2)” value was -0.418.

“HMSKQIEVPDVTDMTVSDAIDVLQDKGFVVSDEQKEVASSEIEEGRVVRTSPAVGSKRKDGTVVTLYVSI”: the “soluble fraction (log2)” value was -0.479. As for “HMSKTEEIAYTTFVKYLENKDIEEVYLGNNAKIKVILKDGREMITDNPRTADFKKDLLLHDIKVVEKT”, the “soluble fraction (log2)” value is no less than 0.43. Turning to “HMSKYGIAYSEVLEILKHIPIEDYNKIPRNEIELFETYADKDFTFNYDSSKTLEEQNVSNITKGIIIL”, the “soluble fraction (log2)” value was -0.465. Next, “HMSLEEQNGAKDRQVEAYELLLKAQRALDQEDTAGFQAAMKDLEPLSSQLDAQGQTLYHELLPFVS”: -0.246; “HMSLGSNISRLRAEKHLSQGDLAEALDVSRQSVSKWETDGSVPDLDKLVKLSRIFGVTLDELVTGTP”: 0.0988.

“HMSLIHEQSLKEIRIFINNLPESLRTAFTLREQDGLSYEEISKITDTPIGTVRSRIFRARESILEHINEEL”: the “soluble fraction (log2)” value is -0.599.

For “HMSLLTPLEEARIVIEELIIPQKLTLDLLPQNSQIRKLQHEIINHYRLKGISIGDGKNRRVRIYS”, the “soluble fraction (log2)” value was -1.48. Take “HMSLMHEESLKNIRRFINSLPESLRTAFTLREQDGLSYEEIGVITETPIGTVRSRIFRAREAILEHIKKEL”: the “soluble fraction (log2)” value is -0.445. The same measure for “HMSLMLYVEDVDTAFKKAIELGATEIRPVHDQFYGDRAGTLQDPFGHIWIIGTHKEDVSDEELNNRIGNI”: -0.332. Next, “HMSLPNNLIEQLQDPEPKARRRAVRRLAATRDPSAIPLLRNVYLQDGDDRVRDAAEAALVQFRAMQHN”: 0.104; “HMSLPTYVQISEAIARRITAGQWLDGERLPPERTMAAEFGVAVGTLRKALSRLQDQKLLRRLQGSGNYINI”: -0.264. Consider “HMSLREKNKARTRTAILNAARDLAKQGQWDAITTRQIADAAGVSYQTLYNYYPSKASILVEMLL”, for which the “soluble fraction (log2)” value was -0.219. Next, “HMSLSDDIAQTLRQLGFDRDVSETLANDVLPAMPTRQDVIDLLGTLGIEKHVAADFANFVVLN”: -1.08. “HMSLSEYLSAPVLEGQRNHALFSAVMQAREQGWDEWQIRTTIGAKAEADGLRHAEIAATIRSAMSREITP”: the “soluble fraction (log2)” value was -0.0425.

For the sequence “HMSLSIKINHESVGLRLDQFLQEHYYKQQSRSYVQHAIKEGYILVNGQSVKNGYMLKLDDLIELEAI”, the “soluble fraction (log2)” value was -0.166. The same measure for “HMSLSNMIGKNIQWTHVTKTKDAEGNPKTNSETFAGNVRGVKVLNGKPMVVAQDAKGKLHEVEVSEIEAIA”: 0.22; for “HMSLTEDELFHALTIYANREGINIGATELKYLLTHYARNLGKLIELINQVSQAATMQKKPITIPLIKHS”: -0.251; for “HMSLTGFYNLTFKQADRLSVIDEAGEEVYKQAIAMGSTTKTIDLSALNAGVYFIRIYNGEVIAQEKIVLN”: -0.958.

Take “HMSLTYTGKFILNHNNIDQSSFNINIYLVNKQTIIQITKPFYGNVLNIKFNEENDLIISPKQFS”: the “soluble fraction (log2)” value is -0.9.

In the case of “HMSMDPYTVLGVNKSSTDSQIKNAYKNLAKQHHPDRGGNEAKFKEISTAYEQIKTAEKRQQYDMSQQF”, the “soluble fraction (log2)” value worked out at 0.389. “HMSMFAQQLKDLRKKIPGLTQTDMAKKLGIAKTTYASYEQGKRTPDIETQNKIADFFNVSLDYLHG”: the “soluble fraction (log2)” value stood at 0.22.

For “HMSMFSEILRTLRKAKGLTQRELAGHLGVTQQMVAKWEKGQSTPGPDQLTRMAELLEVSTDTLLGR”, the “soluble fraction (log2)” value was -0.104. Next, “HMSMNSWFVEKERDNTRIDKFLNEQMADISRSYIQKLIKDDLVTVDLRPVKANYKVKEGDRVEVTLPEPV”: -0.0679; “HMSMPTITLQHYKRGSHYYASIIETFRDPVTRKNSSRTLEALGDISEKMKEDPNYLQSLKDRVKALRSD”: 0.156. “HMSMSLQFLSRRIRLQREKRGLKQHDIAHALQISPQAVSKWERGENAPDIALLRPLAGLLGVSIDWLMGGD”: the “soluble fraction (log2)” value is -1.7. As for “HMSNEEEIEGLVSKVLDNNPEIVERIRSGEDKLISYLVGEVMKQSSSSLNPGIVKEIIVNKTI”, the “soluble fraction (log2)” value was -0.154.

Consider “HMSNEITVPDLSGMSLEELETILSDRSLSYEIIDSIYNSTAKKGTVSSQDPLPDAKVKSGRTIYITVVSKL”, for which the “soluble fraction (log2)” value was -1.31. On to “HMSNENIDQDELQAIIQKVLASNQDAVAKYKAGKTAVIGFLIGQVMRQLNKKIDVALAKKTLLVFLEK”, for which the “soluble fraction (log2)” value came out at 0.0782. The same measure for “HMSNETKSAILNFAEKHHDFNIDDLFESLSKSMDINRSSLLWHLFKLVNSNVLIRTGRGMYAKV”: -0.839; for “HMSNEVSYSDFVRSVESDEVNAVTLDGEQIRFVGNDGQTYSVIKPADAQITQLLIDNNVTVRAEQQ”: -0.0566; for “HMSNEYLMPNLIGMSWDEAKSKYSQYMTLVPEQEWSEVTKDQIFDQEYPEGRKVKIGTEVTVKVSMGI”: 0.228.

As to “HMSNFGALLRMRRLEAGLSYRGLAEQSGLARATLVNLEQGLTKPSPLTMRRLASVKALRLTEL”, the “soluble fraction (log2)” value was found to be 0.00389. On to “HMSNFGERLRALRQDRQMTLQQASKVTGVAQSTLSKMENNQLSPTFNLMQKLAIGLGIDMPQLFAPVK”, for which the “soluble fraction (log2)” value is -0.18. Next, “HMSNGEWQQGSDGRWWYKFSDGTYPKNKVETIGGKKYGFDSEGWMLANTTKEFSGTTYSFGADGVATS”: -0.0709. Next, “HMSNHYETLGVEQTASVDEIKKAYRRLSLQYHPDRNTTSDAVGKFQKINDAHEILSDKQSRTEYDMQLK”: 0.0857.

Values taken from the domain aggregation screens of Martell et al. (2025).
